Positions count from the first letter of the chain named. In names and notes the source's numbering stands. Entries after “also recorded” stand apart in the source; their conditions may differ.

This is an account of results in US9328334B2, “Luciferase derived from lucidina accensa” (OLYMPUS CORPORATION, priority 2011, dated 2016).

Data set [1] in a line: Stability against degradation: SDS-polyacrylamide gel electrophoresis of lysate of E. coli expressing each luciferase (Example 4). The settings on record: lysate of E. coli BL21 (DE3) CodonPlus expressing the luciferase. The method, then: Stability against degradation was determined for the wild type luciferase derived from L. accensa in comparison with a known luciferase derived from L. biplagiata.
The above three genes were introduced into an expression vector and expressed in E. coli. The expression was carried out in the same manner as the Example 2 except that BL21 (DE3) CodonPlus (manufactured by Stratagene Corporation) was used as E. coli strain and the cells were cultured appropriately.
The lysate was prepared from the E. coli expressing each gene, and then subjected to SDS-polyacrylamide gel electrophoresis. It was confirmed that, as a band with the biggest size, a single band is present near 70 kDa for all three kinds of protein. […] Meanwhile, in the luciferase derived from L. biplagiata (i.e., left and right lanes), several bands with a size smaller than 70 kDa were identified.

Data set [2] is described as follows: Measurement of Km value with respect to ATP. Type of data set: biochemical. The settings on record: 0.1 M Tris-HCl pH 8.0, D-luciferin and MgSO4 present. On the procedure: Various 8 types of ATP solutions with different concentrations were prepared by adding ATP to 0.1 M Tris-HCl (pH 8.0). These solutions contain ATP at final concentration of 10, 20, 40, 80, 160, 320, 480, and 640 μM. These ATP solutions were aliquoted into a 96-well microplate at a volume of 50 μl each. 0.1 M Tris-HCl (pH 8.0) solution containing each purified luciferase, 1 mM of D-luciferin, and 8 mM of MgSO4 was connected to a standard pump of a luminometer, and the measurement was carried out at the same time as addition of 50 μL of the solution to wells. Measurement was repeated 3 times for each ATP concentration.
The peak intensities of the obtained photon count value were plotted with respect to ATP concentration S, with an initial rate V. The plots were subjected to curve fitting of Michaelis Menten type, thereby giving Km value. The curve fitting was performed by a nonlinear least-squares method, and the search of the parameter was performed by a Newton method.

The next data set concerns HeLa cells. Kind of data set: Luminescence intensity of luciferase expressed in HeLa cells, comparison with L. biplagiata luciferase (Example 5). The settings on record: 37° C.; for luminescence intensity, mean value (divided by Renilla luciferase intensity): 2 mM D-luciferin, 90 min. Type of data set: cell-based. The source says:
The luminescence intensity from the light emitting reaction using the wild type luciferase derived from L. accensa (SEQ ID NO: 1) was compared to the luminescence intensity from the light emitting reaction using the luciferase derived from L. biplagiata having the literature sequence (SEQ ID NO: 30) or the luciferase derived from L. biplagiata having the cloned sequence (SEQ ID NO: 31). Further, based on the difference between the literature sequence and the cloned sequence, the amino acid residue at position 249 of the amino acid sequence of the wild type luciferase, i.e., methionine, was changed to lysine to prepare the mutant luciferase (M249K), which was then used for the intensity measurement.
With regard to the four types of the luciferase, a nucleic acid containing a gene optimized for mammalian cell expression was given with a Kozak sequence, and then inserted between SgfI and PmeI sites within the multicloning site of pF9A CMV hRLuc neo Flexi vector (manufactured by Promega). Further, since the pF9A vector contains the luciferase gene derived from Renilla reniformis as an internal control in the vector sequence, it is possible to obtain the luminescence intensity from the luminescent gene inserted to the multicloning site as a ratio compared to the luminescence intensity emitted by the Renilla luciferase.
Four types of luciferase plasmids obtained in such a manner described above were each subjected to gene transfection to HeLa cells inoculated in a 48-well plate by a lipofection method, and 24 hours later, the cells were washed with PBS. To each well of a 48-well plate, 500 μL of 2 mM D-luciferin/CO2 Independent Medium (manufactured by Invitrogen) was added and the luminescence intensity was measured for 90 min by using a Luminescensor (manufactured by ATTO Corporation) under the condition including 37° C. and 1 sec per each well. The luminescence intensity which is obtained at the time point of 90 min after starting the measurement was taken as the luminescence intensity of each luciferase. […] Subsequently, 500 μL of 10 μM coelenterazine/CO2 Independent Medium was added to each well and the luminescence intensity was measured for 30 min by using a Luminescensor under the condition including 37° C. and 1 sec per each well. The luminescence intensity obtained at five minutes after the addition of coelenterazine was taken as luminescence intensity of the Renilla luciferase, which is an internal control. Each of the luminescence intensities from the luciferases was divided by the luminescence intensity of the Renilla luciferase, yielding the luminescence intensity of each luciferase. The measurements were carried out multiple times for each luciferase, and the luminescence intensity was obtained as a mean value.

A further data set concerns HeLa cell. Kind of data set: Luminescence intensity of luciferase expressed in HeLa cell, comparison with P. pyralis luciferase (Example 3). It counts as cell-based. Conditions: 2 mM D-luciferin, 25° C., 90 min after starting measurement. The method, then: Each of the wild type luciferase derived from L. accensa, the mutant luciferase derived from L. accensa (N50D and 1530R), and the luciferase derived from P. pyralis (SEQ ID NO: 33) was expressed in a HeLa cell, and the luminescence intensity was measured and compared to each other.
Further, since the pF9A vector contains the luciferase gene derived from Renilla reniformis as an internal control, it is possible to obtain the luminescence intensity from the luminescent gene inserted to the multicloning site as a ratio compared to the luminescence intensity emitted by the Renilla luciferase.
Three types of plasmids obtained in such a manner described above were each subjected to gene transfection to a HeLa cell, which has been inoculated in a 24-well plate, by a lipofection method, and 24 hours later, the cells were washed with PBS. To each well of a 24-well plate, 500 μL of 2 mM D-luciferin/CO2 Independent Medium (manufactured by Invitrogen) was added and the luminescence intensity was measured for 90 min by using a Luminescensor (manufactured by ATTO Corporation) under the condition including 25° C. and 1 sec per each well. The luminescence intensity which is obtained at the time point of 90 min after starting the measurement was taken as the luminescence intensity of the wild type luciferase, the mutant luciferase, and P. pyralis luciferase. […] Subsequently, 500 μL of 10 μM coelenterazine/CO2 Independent Medium was added to each well and the luminescence intensity was measured for 30 min by using a Luminescensor under the condition including 25° C. and 1 sec per each well. The luminescence intensity obtained at five minutes after the addition of coelenterazine was taken as luminescence intensity of the Renilla luciferase, which is an internal control. Each of the luminescence intensity from the wild type luciferase, the mutant luciferase, and P. pyralis luciferase was divided by the luminescence intensity of the Renilla luciferase, and the results are illustrated as a graph illustrating the luminescence intensity of each luciferase.

Data set [3] is described as follows: Measurement of light emission spectra of purified luciferase under various pH environments. It counts as biochemical. Conditions: light emission spectra at various pH. On the procedure:
With use of LumiFlSpectroCapture (manufactured by ATTO Corporation) as an apparatus for measurement, to a solution of 0.1 M citric acid/0.1 M Na2HPO4 buffer (pH 5.5 to 8.0) containing 1 mM of D-luciferin, 2 mM of ATP and 4 mM of MgCl2 the purified enzyme was added at a final concentration of 1 μg/mL, and after 15 seconds of addition of the enzyme luminescence spectra was measured. The measurement results were illustrated in FIG. 1.
After that, each of thus-prepared genes (SEQ ID NOs: 38 and 39) was introduced into pRSET-B vector according to the same method as the Example 2. This vector was transformed to E. coli JM109 (DE3) strain to express the mutant luciferase. Subsequently, the mutant luciferase was purified from E. coli. In addition, under various pH environments, the light emission spectrum was measured according to the same method as the Example 2 from a light emitting reaction catalyzed by the mutant luciferase.

Data set [4] in a line: Measurement of Km for D-luciferin. Type of data set: biochemical. The settings on record: 0.1 M Tris-HCl pH 8.0, ATP and MgSO4 present. On the procedure:
Eight types of D-luciferin solution of various concentrations were prepared by adding D-luciferin to 0.1 M Tris-HCl (pH 8.0). These solutions contain D-luciferin at final concentrations of 0.625, 1.25, 2.5, 5, 10, 20, 40, and 80 μM. These D-luciferin solutions were aliquoted into 96-well microplate at a volume of 50 μL each. A solution of 0.1 M Tris-HCl (pH 8.0) containing each of the purified luciferase, 4 mM of ATP, and 8 mM of MgSO4 was connected to the standard pump of the luminometer, and the measurements was carried out at the same time as addition of 50 μL of the solution to the well. A Luminescensor (manufactured by ATTO Corporation) was used for the measurements. Measurements were repeated 3 times for each luciferin concentration.
The peak intensity of the obtained photon count value was plotted with respect to luciferin concentration S, defining the initial rate as V. The plots were subjected to curve fitting of Michaelis Menten type, thereby giving Km values. The curve fitting was performed by a nonlinear least-squares method, and the search of the parameter was performed by a Newton method.

The test system of data set [5] is E. coli JM109 (DE3) strain. Briefly: Temperature dependency of luminescence intensity: E. coli colonies heat treated at 55° C., CCD image (Example 7). Type of data set: cell-based, Escherichia coli. Conditions: 55° C. for 1 hour, 0.5 mM D-luciferin spray. On the procedure: Each of the wild type luciferase gene and two kinds of the mutant gene obtained in the Example 6 was introduced into pRSET-B vector and transformed to E. coli JM109 (DE3) strain to form a colony. Thus-obtained colony was cultured and applied on a LB agar medium to form again the colony for 24 hours. After that, it was subjected to the heat treatment at 55° C. for 1 hour and kept at room temperature for 1 hour. It was then sprayed with a liquid containing 0.5 mM D-luciferin and a photographic image thereof was taken for 1 min by using a CCD camera (trade name: DP70, manufactured by Olympus Corporation).

B1: wild type luciferase: wild type luciferase obtained from Lucidina accensa, amino acid sequence SEQ ID NO: 1 (protein, listed as Lucidina accensa)
chain: MEEDKNILRGPAPFYPLEDGTAGEQLHRAMKRYALIPGTIAFTDAHAGVNITYSEYFEMACRLAESLKRYGLGLQHRIVVCSENSLQFFMPVVGALFIGVGVAPANDIYNERELLNSMTISQPTLVFCSRKGLQKILNVQKKLPVIQKIIILDTKEDYMGFQSMYSFVDSQLPVGFNEYDYVPDSFDRDQATALIMNSSGSTGLPKGVELNHTSVCVRFSHCRDPVYGNQIIPDTAILSVIPFHHGFGMFTTLGYLICGFRVVLMYRFEEELFLRSLQDYKIQSALLVPTLFSFFAKSTLIDKYDLSNLHEIASGGAPLAKEVGEAVAKRFNLRGIRQGYGLTETTSAVIITPEGDDKPGAVGKVVPFFSAKVVDLDTGKTLGVNQRGELCLKGPMIMKGYVNNPEATNALIDKDGWLHSGDISYWDEDGHFFIVDRLKSLIKYKGYQVPPAELESILLQHPFIFDAGVAGIPDDEAGELPAAVVVLEEGKTMTEKEIMDYVAGQVTTAKRLRGGVVFVDEVPKGLTGKIDARKIREILVKVKKTKSKL
With B1, the “stability against protein degradation (bands on stained SDS-PAGE gel)” value in data set [1] is given as “no other band was identified; also recorded: hardly degraded; also recorded: no degradation occurred”. Moreover, the Michaelis-Menten constant (Km) in data set [2] turned out to be 47.6 µM. In the data set with HeLa cells, the “luminescence intensity, mean value (divided by Renilla luciferase intensity)” value stood at 3.48; the “luminescence intensity in comparison to luciferase derived from L. biplagiata having the literature sequence” value was no less than 29 times; the “luminescence intensity in comparison to mutant luciferase M249K” value was no less than 34.8 times. In addition, the “luminescence intensity (divided by luminescence intensity of Renilla luciferase internal control)” value with HeLa cell is 7.3. Moreover, the “pH environment giving the highest luminescence intensity” value in data set [3] was 8 pH. For the same molecule, the Km in data set [4] was determined as 16 µM.

B2: mutant luciferase (F294Y, V323L, and E354V): L. accensa luciferase mutant with F294Y, V323L and E354V, amino acid sequence SEQ ID NO: 34 (protein, listed as Lucidina accensa)
chain: B1 chain with F294Y, V323L, E354V
Consider B2, for which the “light emission compared to the wild type luciferase at 55° C.” value in data set [5] is given as “stronger light emission; also recorded: higher luminescence intensity”. The “pH environment giving the highest luminescence intensity” value in data set [3] came to 7.4 pH.

B3: L. Biplagiata (literature sequence): luciferase derived from L. biplagiata, sequence disclosed in the literature (Oba et al. 2010), lysine at position 249 (protein, listed as Lucidina biplagiata)
chain: B1 chain with P13A, N211T, Y227F, M249K, I530L, V542A
With B3, the “stability against protein degradation (bands on stained SDS-PAGE gel)” value in data set [1] was “stained in a smear shape in the region of 70 kDa or less”. Further, the “luminescence intensity, mean value (divided by Renilla luciferase intensity)” value in the data set with HeLa cells stood at 0.12.

B4: mutant luciferase (E322W): L. accensa luciferase mutant with E322W, amino acid sequence SEQ ID NO: 36 (protein, listed as Lucidina accensa)
chain: B1 chain with E322W
For the molecule B4, the “light emission compared to the wild type luciferase at 55° C.” value in data set [5] is “stronger light emission; also recorded: higher luminescence intensity”. The “pH environment giving the highest luminescence intensity” value in data set [3] amounted to 8.0 pH.
